In paper PMC4726241, “Crystal structure and SUMO binding of Slx1-Slx4 complex” (Scientific Reports, 2016):

Biological target: T1, Slx1^RING+CT-Slx4^CCD complex (S. pombe, UniProt Q9P7M3 176-271; Q9P6M0 352-419)
T1 construct: Slx4, Schizosaccharomyces pombe, C-terminal conserved domain, residues 352-419; source: E. coli, co-expressed, purified by a procedure similar to that of Slx1^RING-Slx4^CCD; not shown: His6, N-terminal, cleaved
T1 sequence (looked up) 1: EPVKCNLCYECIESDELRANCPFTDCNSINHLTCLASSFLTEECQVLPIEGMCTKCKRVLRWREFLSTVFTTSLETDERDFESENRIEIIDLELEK
T1 sequence (looked up) 2: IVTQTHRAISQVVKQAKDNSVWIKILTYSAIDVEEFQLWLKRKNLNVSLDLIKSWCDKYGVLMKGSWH
Assay: ITC; 2.37 mM Pmt3 injected into 120 μM complex in the cell; 25 °C; 20 mM sodium phosphate pH 6.8, 100 mM NaCl; three repeats
Settings: both partners purified

B1: mature Pmt3 (S. pombe SUMO), residues 1-111 (natural protein, UniProt O13351 1-111, looked up)
chain: MSESPSANISDADKSAITPTTGDTSQQDVKPSTEHINLKVVGQDNNEVFFKIKKTTEFSKLMKIYCARQGKSMNSLRFLVDGERIRPDQTPAELDMEDGDQIEAVLEQLGG
notes: Pmt3 (SUMO), Schizosaccharomyces pombe, mature form, residues 1-111; Uniformly 15N-labelled for the NMR titrations; source: E. coli, purified by a procedure similar to that of the complex
- Kd: 78.3 ± 9.9 µM
